doi:10.1101/857136, “Structural characterization of an intermediate reveals a unified mechanism for the CLC Cl^−/H^+ transport cycle” (bioRxiv, 2019)

Molecular target: the molecule itself
Assay: crystal structure; lipidic cubic phase (monoolein with 10% cholesterol), without any antibody Fab fragment; 16 °C; 100 mM Tris pH 8.5, 100 mM sodium malonate, 30% PEG 400, 2.5% MPD; 2.6 Å

B1: CLC-ec1 QQQ mutant (E148Q/E203Q/E113Q) (natural protein)
chain: MKTDTPSLETPQAARLRRRQLIRQLLERDKTPLAILFMAAVVGTLVGLAAVAFDKGVAWLQNQRMGALVHTADNYPLLLTVAFLCSAVLAMFGYFLVRKYAPEAGGSGIPEIQGALEDQRPVRWWRVLPVKFFGGLGTLGGGMVLGRQGPTVQIGGNIGRMVLDIFRLKGDEARHTLLATGAAAGLAAAFNAPLAGILFIIEQMRPQFRYTLISIKAVFIGVIMSTIMYRIFNHEVALIDVGKLSDAPLNTLWLYLILGIIFGIFGPIFNKWVLGMQDLLHRVHGGNITKWVLMGGAIGGLCGLLGFVAPATSGGGFNLIPIATAGNFSMGMLVFIFVARVITTLLCFSSGAPGGIFAPMLALGTVLGTAFGMVAVELFPQYHLEAGTFAIAGMGALLAASIRAPLTGIILVLEMTDNYQLILPMIITGLGATLLAQFTGGKPLYSAILARTLAKQEAEQLARSK
notes: CLC-ec1, prokaryotic CLC Cl-/H+ exchange transporter, with glutamines in place of Gluex (E148), Gluin (E203) and E113; The final crystallographic model holds all residues except those of helix A (no density); PDB 1ots is the wild-type parent used as search model; also called QQQ protein
Does B1 bind?
Result: binds
